# Several values for one entry are separate records, joined by “and”; a condition that tells them apart may be missing. Identical values can stand only once.
# B1: GST-BAP1-UCH-WT (1–250 aa) (domain or fragment, human, UniProt Q92560 1-250, looked up)
# chain: MNKGWLELESDPGLFTLLVEDFGVKGVQVEEIYDLQSKCQGPVYGFIFLFKWIEERRSRRKVSTLVDDTSVIDDDIVNNMFFAHQLIPNSCATHALLSVLLNCSSVDLGPTLSRMKDFTKGFSPESKGYAIGNAPELAKAHNSHARPEPRHLPEKQNGLSAVRTMEAFHFVSYVPITGRLFELDGLKVYPIDHGPWGEDEEWTDKARRVIMERIGLATAGEPYHDIRFNLMAVVPDRRIKYEARLHVLKV
# B2: His-ASXL2-AB (261–381aa) (domain or fragment, human, UniProt Q76L83 261-381, looked up)
# chain: MKRTKCADIDVETPDSILVNTNLRALINKHTFSVLPGDCQQRLLLLLPEVDRQVGPDGLMKLNGSALNNEFFTSAAQGWKERLSEGEFTPEMQVRIRQEIEKEKKVEPWKEQFFESYYGQS
# B3: His-ULD/AB protein complex (pETDuet-1-His-BAP1-ULD+ASXL2-AB) (complex, human)
# chain 1: KEVVEATDSREKTGMVRPGEPLSGEKYSPKELLALLKCVEAEIANYEACLKEEVEKRKKFKIDDQRRTHNYDEFICTFISMLAQEGMLANLVEQNISVRRRQGVSIGRLHKQRKPDRRKRSRPYKAKRQ
# chain 2: B2 chain
# B4: His-BAP1-ULD (601–729aa) (domain or fragment, human, UniProt Q92560 601-729, looked up)
# chain: B3 chain 1
# How the values were obtained:
# [1] = molecular target: B3; experiment: SPR
# GST-BAP1-ULD = molecular target: T1, GST-BAP1-ULD (human, UniProt Q92560 601-729); experiment: SPR
# T1 sequence (looked up): B3 chain 1
# His-BAP1-ULD (601–729aa) = molecular target: B4; experiment: ITC
# [2] = molecular target: T2, Full-length His-BAP1 (Bv-His-BAP1-FL-WT) (human, UniProt Q92560 1-729); experiment: SPR
# T2 sequence (looked up): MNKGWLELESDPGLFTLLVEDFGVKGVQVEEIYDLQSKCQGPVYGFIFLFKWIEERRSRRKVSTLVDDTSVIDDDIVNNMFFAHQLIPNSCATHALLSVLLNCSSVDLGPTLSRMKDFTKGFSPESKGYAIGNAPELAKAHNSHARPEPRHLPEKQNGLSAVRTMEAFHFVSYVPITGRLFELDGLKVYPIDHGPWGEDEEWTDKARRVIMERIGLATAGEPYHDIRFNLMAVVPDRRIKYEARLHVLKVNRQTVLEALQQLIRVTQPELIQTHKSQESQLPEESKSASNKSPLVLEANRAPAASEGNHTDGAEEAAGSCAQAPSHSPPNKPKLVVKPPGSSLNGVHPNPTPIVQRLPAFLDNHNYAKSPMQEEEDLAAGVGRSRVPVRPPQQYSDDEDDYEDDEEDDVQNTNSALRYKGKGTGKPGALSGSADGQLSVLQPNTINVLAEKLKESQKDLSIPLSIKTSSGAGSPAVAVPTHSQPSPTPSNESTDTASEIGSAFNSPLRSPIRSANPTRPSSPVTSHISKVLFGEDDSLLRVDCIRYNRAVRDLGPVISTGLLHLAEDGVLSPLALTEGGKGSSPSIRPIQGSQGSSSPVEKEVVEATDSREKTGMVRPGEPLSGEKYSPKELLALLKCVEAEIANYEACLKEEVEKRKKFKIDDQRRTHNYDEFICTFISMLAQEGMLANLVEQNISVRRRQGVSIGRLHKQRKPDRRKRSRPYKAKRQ
# His-ASXL2-AB (261–381aa) = molecular target: B2; experiment: ITC
binder,measurement,setting,value
B1,koff,[1],0.044 s⁻¹
B2,Kd,GST-BAP1-ULD,134 nM and 67 nM
same,Kd,His-BAP1-ULD (601–729aa),~4260 nM
B3,Kd,[2],850 nM and 1910 nM
same,koff,[2],0.033 s⁻¹
B4,dH,His-ASXL2-AB (261–381aa),-9.87 kcal/mol

# From paper PMC8254751 (Molecular cancer research : MCR, 2021)
